Measured values: publication PMC11134608 (2023)
Each block holds one binder with its values, some of them ahead of it. No end group written: not given here. fluorescein = fluorescein (FAM) fluorescent label

Legend:
[1] = target: T1, RARA/RXRA heterodimer (ligand-binding domains) (UniProt P10276 175-421; P19793 224-462); assay: FP; Kapp, competition with fluorescein-NCOA1 peptide, + ATRA
T1 chain 1: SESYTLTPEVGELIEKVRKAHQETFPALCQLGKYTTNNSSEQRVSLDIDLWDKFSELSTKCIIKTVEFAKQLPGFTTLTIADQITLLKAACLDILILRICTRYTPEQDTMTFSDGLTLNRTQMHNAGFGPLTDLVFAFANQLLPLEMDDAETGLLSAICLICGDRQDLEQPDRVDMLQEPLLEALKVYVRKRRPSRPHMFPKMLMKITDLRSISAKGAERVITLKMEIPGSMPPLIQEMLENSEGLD
T1 chain 2: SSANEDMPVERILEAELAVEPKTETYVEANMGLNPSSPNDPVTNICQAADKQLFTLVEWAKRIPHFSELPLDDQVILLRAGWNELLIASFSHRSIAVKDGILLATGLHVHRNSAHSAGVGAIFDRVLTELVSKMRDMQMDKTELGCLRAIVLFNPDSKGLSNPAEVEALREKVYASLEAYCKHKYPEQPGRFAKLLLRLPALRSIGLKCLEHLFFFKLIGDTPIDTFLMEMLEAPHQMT

[2] = target: T1, RARA/RXRA heterodimer (ligand-binding …); assay: FP; + DMSO (no ATRA)
[3] = target: T1, RARA/RXRA heterodimer (ligand-binding …); assay: FP; + ATRA

- apparent binding constant (Kapp) [1]: 41.4 µM
Binder: LQPYLRELLSAKD [UBR5 aa1098]

- apparent binding constant (Kapp) [1]: 3.1 µM
Binder: RLDLLYRLLTATN [UBR5 aa1251]

- Kd [2]: 5.5 µM
- Kd [3]: 0.69 µM
Binder: fluorescein-ARHKILHRLLQEGS [Fluorescein-labelled NCOA1 peptide residues 687–698 (Flc-ARHKILHRLLQEGS)]

- apparent binding constant (Kapp) [1]: 3.7 µM
B1: NCOA1 aa686 (peptide)
chain: ARHKILHRLLQEGS
modifications: unlabelled competitor; the tracer form carries N-terminal fluorescein. The text prints limits 687-698 for a 14-mer; the LXXLL motif at 690-694 places RHKILHRLLQEGS at 686-698, with an extra N-terminal Ala in the printed peptide
